Data as given in the Immune Epitope Database (IEDB).

Experiments:
Experiment in all cases: IEDB peptide-MHC binding, purified MHC/competitive/radioactivity; ≥ and ≤ were set here for values at or beyond the usual limits of such assays
Details in all cases: source organism: Bordetella pertussis
HLA-B*44:03 = target: HLA-B*44:03
HLA-B*57:01 = target: HLA-B*57:01
HLA-A*02:01 = target: HLA-A*02:01
HLA-B*35:01 = target: HLA-B*35:01
HLA-B*53:01 = target: HLA-B*53:01
HLA-B*07:02 = target: HLA-B*07:02

For LEAGRRFTH, the IC50 (HLA-B*44:03) was 44.2 µM.

In the case of AEKVTTPAV, the IC50 (HLA-B*44:03) is reported as 39.3 µM.

AELQTYLRQ showed an IC50 (HLA-B*44:03) of 1.83 µM.

LAAQVTQRG gave an IC50 (HLA-B*57:01) of 40.2 µM.

With AMQGAVVHL the IC50 (HLA-B*44:03) was 37.1 µM and the IC50 (HLA-A*02:01) was 2.65 µM.

For ALILAASPV, the IC50 (HLA-A*02:01) was 26.3 µM.

In the case of LPEPVKLTL, the IC50 (HLA-B*35:01) is reported as 69.9 µM.

KTNMVVTSV was tested, and the IC50 (HLA-B*57:01) was 4.37 µM.

SLADISLGA was tested, and the IC50 (HLA-A*02:01) was 0.0911 µM.

ATYIADSGF was tested, and the IC50 (HLA-B*57:01) was 4.17 µM.

In the case of YIWGLYPTY, the IC50 (HLA-B*53:01) is reported as 48.1 µM.

In the case of AVAAPAVGA, the IC50 (HLA-A*02:01) is reported as at least 78.1 µM.

Work on AMTHLSPAL yielded an IC50 (HLA-A*02:01) of 0.162 µM.

LMGPLQVNA showed an IC50 (HLA-A*02:01) of 0.629 µM.

In the case of LPKPVTVKL, the IC50 (HLA-B*07:02) is reported as 2.66 µM.
